According to paper PMC9027083:

These substances were tested against recombinant MBP-EDIII of DENV2 (Dengue virus 2 (strain Thailand/16681/84)) (assay: SPR).
1A1D-2 Fab A54E-Y105R double mutant showed a Kd of 0.0123 µM, a koff of 0.00274 s⁻¹ and a kon of 222000 M⁻¹ s⁻¹.
In the case of 1A1D-2 Fab Y105R.H, the Kd is reported as 0.203 µM, the koff is reported as 0.0195 s⁻¹ and the kon is reported as 96200 M⁻¹ s⁻¹.
For 1A1D-2 Fab A54E.H, the Kd was 0.0419 µM, the koff was 0.00822 s⁻¹ and the kon was 197000 M⁻¹ s⁻¹.
